Test results as given in patent publication US20040014191A1, “Nitroreductase enzymes” (priority 1999, published 2004).
Where two headings read alike, the source gives them in different places.

Experiments:
[1] = system: Cc1cc2nc3c(=O)[nH]c(=O)nc-3n(C[C@H](O)[C@H](O)[C@H](O)COP(=O)(O)OP(=O)(O)OC[C@H]3O[C@@H](n4cnc5c(N)ncnc54)[C@H](O)[C@@H]3O)c2cc1C; assay: purified protein, by the assay type
Procedure: Quantitative assays using CB 1954 or SN 23862 as substrate were carried out at 37° C. by HPLC as previously described (2) (3). […] Incubation times varied according to the enzyme activity being studied.

[2] = assay type: biochemical; settings: Table 6
[3] = Flavin reductase assay with FMN and FAD; assay type: biochemical
Procedure: (§1) Assays were carried out spectrophotometrically at 37° C. in 10 mM Tris pH 7.5 using cytochrome c as terminal electron acceptor.

[4] = assay type: biochemical; settings: Table 6; remark: listed apart in the source
[5] = Nitroreductase enzyme assay with CB 1954 as substrate (HPLC); assay type: biochemical; settings: for CB1954 (product formed / activity): Table 2, recombinant B. subtilis enzymes, crude lysates
[6] = system: recombinant enzymes (antigens); assay: Polyclonal antisera titres by ELISA; assay type: binding; settings: rabbit antiserum; for Post-boost titre: 10 days after booster; for Pre-boost titre (50%): after 8 weeks
Procedure: Polyclonal antisera were raised against recombinant enzymes by immunising rabbits with […] of protein in 50% PBS:50% Freund's complete adjuvant, total volume 400 μl. Blood was collected by ear bleed after 6-8 weeks and again 10 days after a booster immunisation of protein, and titre assessed by ELISA. 96-well plates were coated with 1 μg ml^−1 of the proteins and blocked with 10% v/v foetal calf serum (FCS), antibodies were diluted in assay buffer (1% FCS) and applied in doubling dilutions across the plate from 1 in 100 to 1 in 51 200 or 1 in 150 to 1 in 76 800. A secondary antibody conjugated with HRP (dilution 1 in 10 000) was used to develop the assay with 3,3′,5,5′-tetramethylbenzidine (TMB) as substrate.
Antisera to E. coli B NfnB and six novel proteins (Haemophilus influenzae and Campylobacter jejuni NfnB homologues, YdgI and YodC of Bacillus subtilis, YwrO of B. amyloliquefaciens and Porphyromonas gingivalis YwrO homologue) have been raised in rabbits by inoculation with 100 μg of protein in PBS+ Freund's complete adjuvant. Titres were assessed by ELISA after 8 weeks, and 10 days after a booster inoculation of a further 100 μg of protein per rabbit. Pre-immune sera were also tested.
96 well plates were coated overnight at 4° C. with the antigens at 1 μg/ml. After washing and blocking antisera were added in doubling dilutions in an appropriate range across the plates. The plates were developed using goat anti-rabbit IgG peroxidase conjugate with TMB as substrate, and read at 450 nm.

[7] = Quinone reductase assay with menadione, cytochrome c as terminal electron acceptor; assay type: biochemical
Procedure: as §1

[8] = Nitroreductase enzyme assay with SN 23862 as substrate (HPLC); assay type: biochemical; settings: for SN 23862 acitvity: Table 6; for SN23862 (activity): Table 2, recombinant B. subtilis enzymes, crude lysates
[9] = other: cofactor NADH, 37° C., 10 mM Tris pH 7.5, pH 7.5

**Q.** Which Km [1, 9] does the source give for “YodC (Bacillus subtilis subsp. subtilis str. 168)” here?
**A.** The Km was 0.6 ± 0.1 µM.

**Q.** What about the kcat [1, 9] of the same molecule?
**A.** The kcat was 269 ± 4.9 s⁻¹.

**Q.** What about the kcat/Km [1, 9] of the same molecule?
**A.** Its kcat/Km is 4.48e+08 M⁻¹ s⁻¹.

**Q.** What about the Km ([1]; other: cofactor NADPH, 37.0 °C) of the same molecule?
**A.** Its Km is 2.4 ± 0.3 µM.

**Q.** And the kcat ([1]; other: cofactor NADPH, 37.0 °C)?
**A.** The kcat was 283 ± 7.4 s⁻¹.

**Q.** And the kcat/Km ([1]; other: cofactor NADPH, 37.0 °C)?
**A.** Its kcat/Km is 1.18e+08 M⁻¹ s⁻¹.

B1: C. jejuni NfnB: nitroreductase from Campylobacter jejuni, SEQ ID NO: 23 (protein, listed as Campylobacter jejuni)
chain: MKKELEIFSTRYSCRNFKNEKLKKEDLNSILEIARLSPSSLGLEPWKFIVVQDEKRKEELSKICNQQKHVKDCAALIIIISRLDFLDYFEEKLRKRDMSETEMQKRLDTYMPFLKSLNQEQKISYAREQAHIALASILYSANALNIASCTIGGFDKEKLDSYLSLDIQKERSSLVVALGYCNDKKNPQKNRFSFDEVVKFI
**Q.** Which Azo-Reductase [2] does the source give for B1 here?
**A.** Its Azo-Reductase is “Yes”.

**Q.** What about the Flavin reductase ([3]; Table 6) of the same molecule?
**A.** Its Flavin reductase is “Yes”.

**Q.** What about the “flavin reductase activity” value ([3]; listed as C. jejuni NfnB homologue) of the same molecule?
**A.** Its value is “can use the quinone menadione as substrate as well as azodyes and the flavins FMN and FAD”.

**Q.** And the “flavin reductase activity” value ([3]; listed as C. jejuni protein)?
**A.** Its value is “high affinity for both FAD and FMN”.

**Q.** And the Cofactor [4]?
**A.** The Cofactor was “NADPH”.

**Q.** And the “kcat (CB 1954)” value [5]?
**A.** Its value is 6.1 s⁻¹.

**Q.** What about the kcat for CB1954 (text) [5] of the same molecule?
**A.** Its kcat for CB1954 (text) is 11.2 s⁻¹.

**Q.** What about the “reduction of CB1954: activity and product formed” value (from here on “reduction of CB1954”) [5] of the same molecule?
**A.** Its value is “only the 4HX reduction product”.

**Q.** And the Km ([5]; Table 6, 37° C., read-out: Km CB 1954)?
**A.** The Km was 217 µM.

**Q.** And the “CB 1954 product” value ([5]; Table 6, recombinant enzymes)?
**A.** The value was 4HX.

**Q.** And the Km ([5]; read-out: Km for CB1954)?
**A.** The Km was 143 µM.

**Q.** And the Post-boost titre [6]?
**A.** Its Post-boost titre is 2500.

**Q.** And the “Pre-boost titre (50%)” value [6]?
**A.** Its value is 1100.

**Q.** What about the “activity with menadione / quinone reductase” value [7] of the same molecule?
**A.** The value was “can use the quinone menadione as substrate”.

**Q.** And the Quinone reductase ([7]; Table 6)?
**A.** Its Quinone reductase is “Yes”.

**Q.** And the “activity with SN23862” value [8]?
**A.** Its value is “active with SN23862”.

**Q.** And the “SN 23862 acitvity, second number of the cell (kcat)” value ([8]; Table 6, HPLC assay)?
**A.** Its value is 6.4.

**Q.** And the Km ([8]; Table 6, HPLC assay, read-out: SN 23862 acitvity, first number of the cell (Km))?
**A.** Its Km is 224 µM.

B2: H. pylori: nitroreductase from Helicobacter pylori, SEQ ID NO: 29 (protein, listed as Helicobacter pylori)
chain: MKFLDQEKRRQLLNERHSCKMFDSHYEFSSEELEEIAEIARLSPSSYNTQPWHFVMVTNKDLKKQIAAHSYFNEEMIKSASALMVVCSLKPSELLPTGHYMQNLYPESYKVRVIPSFAQMLGVRFNHSMQKLESYILEQCYIAVGQICMGVSLMGLDSCIIGGFDPLKVGEVLEERINKPKIACLIALGKRVAEASQKSRKSKVDAITWL
**Q.** Which Azo-Reductase [2] does the source give for B2 here?
**A.** Its Azo-Reductase is “No”.

**Q.** And the Cofactor [4]?
**A.** The Cofactor was “NADPH”.

**Q.** And the “CB 1954 product” value ([5]; Table 6, recombinant enzymes)?
**A.** The value was 4 > 2HX.

**Q.** What about the “reduction of CB1954” value ([5]; listed as H. pylori NfnB homologue) of the same molecule?
**A.** The value was “form the 4HX reduction product of CB1954”.

**Q.** What about the “reduction of CB1954” value ([5]; listed as Helicobacter pylori enzyme) of the same molecule?
**A.** Its value is “mixture of the 2 and 4HX”.

**Q.** What about the “activity with SN23862” value [8] of the same molecule?
**A.** Its value is “weak activity with SN23862”.

**Q.** And the “SN 23862 acitvity” value [8]?
**A.** Its value is “Weak”.

B3: Synechocystis: nitroreductase from Synechocystis sp PCC 6803, SEQ ID NO: 19 (protein)
chain: MDTFDAIYQRRSVKHFDPDHRLTAEEERKLHEAAIQAPTSFNIQLWRFLIIRDPQLRQTIREKYGNQAQMTDASLLILVAADVNAWDKDPARYWRNAPREVANYLVGAIAFYGGKPQLQRDEAQRSIGMAMQNLMLAAKAMGYDSCPMIGFDLQKVAELVKLPADYAIGPMVAIGKRTEDARAKGGQTPLEELVWENSFA
modifications: Synechocystis PCC6803
**Q.** What does the source list for B3?
**A.** Azo-Reductase [2]: No; Cofactor [4]: NADPH; reduction of CB1954: activity and product formed [5]: only the relatively non-toxic 2HX derivative; CB 1954 product ([5]; Table 6, recombinant enzymes): 2HX; activity with SN23862 [8]: show activity with SN23862; SN 23862 acitvity [8]: Weak

B4: Bs YwrO: nitroreductase from B. subtilis, SEQ ID NO: 4 (protein, listed as Bacillus subtilis)
chain: MKILVLAVHPHMETSVVNKAWAEELSKHDNITVRDLYKEYPDEAIDVAKEQQLCEEYDRIVFQFPLYWYSSPPLLKKWQDLVLTYGWAFGSEGNALHGKELMLAVSTGSEAEKYQAGGANHYSISELLKPFQATSNLIGMKYLPPYVFYGVNYAAAEDISHSAKRLAEYIQQPFV
**Q.** For B4, which “reduction of CB1954” value [5] is on record?
**A.** The value was “inactive with either CB 1954 or SN 23862”.

**Q.** And the “CB1954 (product formed / activity)” value [5]?
**A.** Its value is 4HX.

**Q.** And the “reduction of CB1954” value ([5]; listed as B. subtilis YwrO)?
**A.** Its value is “converts CB1954 to the 4HX derivative alone”.

**Q.** And the “activity with SN23862” value [8]?
**A.** Its value is “inactive with either CB 1954 or SN 23862”.

**Q.** And the “SN23862 (activity)” value [8]?
**A.** The value was “inactive”.

**Q.** What about the “activity with SN23862” value ([8]; listed as B. subtilis YwrO) of the same molecule?
**A.** The value was “inactive against SN23862”.

B5: YdeQ: nitroreductase from B. subtilis, SEQ ID NO: 8 (protein, listed as Bacillus subtilis)
chain: MDHMKTLVLVVHPNIESSRINKKWKEAVLSEPDVTVHDLYEKYRDQPIDVEFEQQQLLAHDRIVFQFPLYWYSSPPLLKQWFDEVFTFGWAHGPGGNKLKGKEWVTAMSIGSPEHSYQAGGYNLFSISELTKPFQASAHLVGMTYLPSFAEYRANTISDQEIAESANRYVKHITNIELNPKVRLQRYLKQLESVDLT
**Q.** For B5, which “reduction of CB1954” value [5] is on record?
**A.** Its value is “no activity with prodrugs”.

**Q.** And the “CB1954 (product formed / activity)” value [5]?
**A.** Its value is “inactive”.

**Q.** And the “activity with SN23862” value [8]?
**A.** The value was “no activity with prodrugs”.

**Q.** What about the “SN23862 (activity)” value [8] of the same molecule?
**A.** The value was “inactive”.

B6: YrkL: nitroreductase from B. subtilis, SEQ ID NO: 6 (protein, listed as Bacillus subtilis)
chain: MKTLVIVIHPNLETSVVNKTWMNRLKQEKDITVHDLYGEYPNFIIDVEKEQQLLLDHERIVFQFPMYWYSSPALLKQWEDDVLTHGWAYGTGGTKLHGKELLLAISSGAQESDYQAGGEYNITISELIRPFQVTANYIGMRFLPAFTQYGTLHLSKEDVKNSAERLVDYLKAEH
**Q.** With B6 as the molecule, how does the “reduction of CB1954” value [5] read?
**A.** The value was “no activity”.

**Q.** What about the “CB1954 (product formed / activity)” value [5] of the same molecule?
**A.** Its value is “inactive”.

**Q.** And the “activity with SN23862” value [8]?
**A.** Its value is “no activity”.

**Q.** And the “SN23862 (activity)” value [8]?
**A.** Its value is “inactive”.

B7: E. coli BNfnB (protein)
chain: MDIISVALKRHSTKAFDASKKLTPEQAEQIKTLLQYSPSSTNSQPWHFIVASTEEGKARVAKSAAGNYVFNERKMLDASHVVVFCAKTAMDDVWLKLVVDQEDADGRFATPEAKAANDKGRKFFADMHRKDLHDDAEWMAKQVYLNVGNFLLGVAALGLDAVPIEGFDAAILDAEFGLKEKGYTSLVVVPVGHHSVEDFNATLPKSRLPQNITLTEV
**Q.** Which results are given for B7?
**A.** Post-boost titre [6]: 11000; Pre-boost titre (50%) [6]: 1300

B8: Rat DTD: rat DT-diaphorase enzyme (protein, UniProt P05982 2-274, looked up)
NAD(P)H dehydrogenase …: AVRRALIVLAHAERTSFNYAMKEAAVEALKKKGWEVVESDLYAMNFNPLISRNDITGEPKDSENFQYPVESSLAYKEGRLSPDIVAEQKKLEAADLVIFQFPLYWFGVPAILKGWFERVLVAGFAYTYATMYDKGPFQNKKTLLSITTGGSGSMYSLQGVHGDMNVILWPIQSGILRFCGFQVLEPQLVYSIGHTPPDARVQVLEGWKKRLETVWEESPLYFAPSSLFDLNFQAGFLLKKEVQEEQKKNKFGLSVGHHLGKSIPADNQIKARK
**Q.** Which CB1954 kcat ([5]; Table 1) does the source give for B8 here?
**A.** Its CB1954 kcat is 0.07 s⁻¹.

**Q.** And the “CB 1954 product” value ([5]; Table 1, purified enzymes)?
**A.** Its value is 4HX.

**Q.** And the “SN23862 Km” value ([8]; Table 1)?
**A.** Its value is “inactive”.

**Q.** And the SN23862 kcat ([8]; Table 1)?
**A.** Its SN23862 kcat is “inactive”.
